# From patent publication US20240002497A1 (Merck Sharp & Dohme, published 2024)
# Tests used:
# Navβ3 = target: T1, Navβ3 (human, UniProt Q9NY72 23-215, limits assumed); assay: binding ELISA
# T1 construct: also called beta3 subunit
# huNav1.7α = target: T2, huNav1.7α (human, UniProt Q15858 1-1988); assay: further characterization (binding ELISA and FACS)
# T2 construct: HEK cells expressing the α subunit alone; also called HEKa; HEK huNav1.7α
# huNav157chim14 = target: T3, huNav157chim14 (human); assay: binding FACS, HEK Flp-In
# T3 construct: HEK Flp-In cells; also called huNav157 chimera 14
# huNav157chim14-β1-β2-β3 = target: T4, huNav157chim14-β1-β2-β3 (human); assay: binding FACS, HEK Flp-In
# T4 construct: Whole entry; HEK Flp-In cells; also called huNav157 chimera 14-beta1-beta2-beta3
# huNav1.7α + β1-β2-β3 [1] = target: T5, huNav1.7α + β1-β2-β3 (human, UniProt Q15858 1-1988; A5A6L6 19-218; O60939 30-215; Q2KI11 23-215); assay: FACS, CHO Flp-In, competitor 1 µM IRR00092
# T5 construct: also called huNav1.7-beta1-beta2-beta3; huNav1.7-β1-β2-β3
# rhNav1.7α + β1-β2-β3 [2] = target: T6, rhNav1.7α + β1-β2-β3 (rhesus monkey); assay: FACS, CHO Flp-In, competitor 1 µM IRR00092
# T6 construct: also called rhNav1.7-beta1-beta2-beta3; rhNav1.7-β1-β2-β3
# rhNav1.7α + β1-β2-β3 [3] = target: T6, rhNav1.7α + β1-β2-β3; assay: FACS, CHO Flp-In, competitor 1 µM F010300703
# huNav1.7α + β1-β2-β3 [4] = target: T5, huNav1.7α + β1-β2-β3; assay: binding FACS, CHO Flp-In, periplasmic extract
# huNav157chim4 + β1-β2-β3 = target: T7, huNav157chim4 + β1-β2-β3 (human, UniProt Q15858 44-1988; A5A6L6 19-218; O60939 30-215; Q2KI11 23-215); assay: FACS, transiently transfected HEK293T cells
# T7 construct: DII, DIII, DIV from Nav1.7α, DI from Nav1.5α; also called huNav157 chimera 4
# Protocol: (§1) Binding of the ISVDs to cell-expressed Nav1.7α was detected via murine anti-Flag (Sigma, catalog #F1804). Briefly, cells were resuspended in FACS buffer (PBS, 10% FBS, NaN₃) and transferred to a 96-well V-bottom plate at 1×10^5 cells/well. Purified FLAG3-tagged ISVD was diluted in FACS buffer and added to the cells for 30 minutes at 4° C. […] Prior to the read-out, the samples were resuspended in 1 μg/mL propidium iodide (Sigma, catalog #P4170) to exclude dead cells. Between each step, the cells were centrifuged for 5 minutes at 200 grams and washed with 100 μL/well FACS buffer.
# (§2) FACS binding studies (as described above) were performed on HEK293T cells transiently transfected with expression vectors encoding a huNav1.7α or rhNav1.7α fused at the C-terminus via a P2A viral peptide linker to a single polypeptide encoding sodium channel beta subunits Navβ1, Navβ2, and Navβ3 in tandem (β1-β2-β3; SEQ ID NO:21). Similarly, HEK293T cells transiently transfected with expression vectors encoding chimeric variants of huNav1.7α in which individual domains are replaced by their huNav1.5α counterparts (chimeras 1 to 4 in FIG. 16) or with chimeric variants of huNav1.5 in which individual domains are replaced by their huNav1.7α counterparts (chimeras 5 to 8 in FIG. 16) fused at the C-terminus via a P2A viral peptide linker to β1-β2-β3 as above. See Table 7 for description of the expression vectors encoding the chimeras, Table 21 and FIG. 16).
# huNav157chim5 + β1-β2-β3 = target: T8, huNav157chim5 + β1-β2-β3 (human); assay: FACS, transiently transfected HEK293T cells
# T8 construct: DI, DII, DIII from Nav1.5α, DIV from Nav1.7α; also called huNav157 chimera 5
# Protocol: as §1, §2
# huNav157chim6 + β1-β2-β3 = target: T9, huNav157chim6 + β1-β2-β3 (human); assay: FACS, transiently transfected HEK293T cells
# T9 construct: DI, DII, DIV from Nav1.5α, DIII from Nav1.7α; also called huNav157 chimera 6
# Protocol: as §1, §2
# huNav157chim7 + β1-β2-β3 = target: T10, huNav157chim7 + β1-β2-β3 (human); assay: FACS, transiently transfected HEK293T cells
# T10 construct: DI, DIII, DIV from Nav1.5α, DII from Nav1.7α; also called huNav157 chimera 7
# Protocol: as §1, §2
# [5] = target: T11, huNav157chim12 + β1-β2-β3 (human, UniProt Q15858 1-1988; A5A6L6 19-218; O60939 30-215; Q2KI11 23-215); assay: FACS, transiently transfected HEK293T cells
# T11 construct: DI S5-S6 from Nav1.5α, rest Nav1.7α; also called huNav157 chimera 12
# Protocol: as §1, §2
# huNav1.7α + β1-β2-β3 [6] = target: T12, huNav1.7α + β1-β2-β3 (human, UniProt Q15858 1-1988; A5A6L6 19-218; O60939 30-215; Q2KI11 23-215); assay: competition FACS, HEK FlpIn cells, vs EC30 of CMYC3-F0103265B04
# T12 construct: Cell line (CHO FlpIn, HEK FlpIn, transient HEK293T) is named under assay; also called huNav1.7-beta1-beta2-beta3; human Nav1.7α with Navβ1, Navβ2 and Navβ3
# Protocol: Competition FACS assays were performed with CMYC3-tagged ISVD F0103265B04 or F0103275B05(N93R) affinity maturation variant on a HEK FlpIn huNav1.7α+β1−β2−β3 transgenic cell line. Briefly, cells were resuspended in FACS buffer (PBS, 2% FBS, 0.05% NaN₃) and 1×10⁵ cells/well were transferred to 96-well V-bottom plates. Cells were subsequently resuspended in a 100 μL mixture of purified ISVD (dilution series) and CMYC3-tagged ISVD F0103265B04 (at a concentration equivalent to EC30) followed by incubation for 1.5 hours at 4° C. […] Between each step, the cells were centrifuged for 5 minutes at 200 g and washed with 100 μL/well FACS buffer. Prior to the read-out, the samples were resuspended in 5 nM TOPRO3 (Molecular probes, catalog #T3605) to exclude dead cells. F0103262CO2, F0103262B06, F0103265A11, F0103265B04, F0103275B05, F0103362B08, and F0103387G04 all compete with F0103265B04 for binding to huNav1.7α, in contrast to an irrelevant control ISVD (IRR) (see Table 21 and FIG. 15A, FIG. 15B, FIG. 15C, and FIG. 15D).
binder,measurement,setting,value
"F0103240B04 (VHH, Purified monovalent protein; also called anti-Navβ2 ISVD F0103240B04) VHH: EVQLVESGGGLVQAGGSLRLSCAASGGTGRRYAMGWFRQAPGKEREIVAAIRWSAMTYYADDGKGRFTISRDNAKNTVYLQMNSLKPEDTAIYYCAYTWDYFKYDQVRAYRGWGQGTLVTVSS",binding result,Navβ3,no binding
"F0103492E09 (VHH, Purified monovalent protein) VHH: EVQLVESGGGLVQAGGSLRLSCAASKSILSFAYMRWYRQAPGKQREFVASIAIGGATSYTDSVKGRFTISRDNAKNTVYLQMNSLKPEDTAVYYCSAPAGQYRGQGTLVTVSS",binding result,Navβ3,no binding
same,binding result,huNav1.7α,no binding
"F0103PMP492E09 (bispecific antibody, crude periplasmic extract; also called F103275B05(N93R)-50GS-F0103492E09 bivalent ISVD) EVQLVESGGGLVQPGGSLRLSCAASGSIFNINSMAWYRRAPGKQRELVASSTNGGSTNYADSVKGRFTISRDNAKRVYLQMNSLTPEDTAVYYCRALLQPSIYDISRTYWGQGTLVTVSSGGGGSGGGGSGGGGSGGGGSGGGGSGGGGSGGGGSGGGGSGGGGSGGGGSEVQLVESGGGLVQAGGSLRLSCAASKSILSFAYMRWYRQAPGKQREFVASIAIGGATSYTDSVKGRFTISRDNAKNTVYLQMNSLKPEDTAVYYCSAPAGQYRGQGTLVTVSSAAADYKDHDGDYKDHDIDYKDDDDKGAAHHHHHHKAAGGGGG",MFI,huNav157chim14,58400 MFI
same,MFI,huNav157chim14-β1-β2-β3,133000 MFI
same,MFI,huNav1.7α + β1-β2-β3 [1],104000 MFI
same,MFI,rhNav1.7α + β1-β2-β3 [2],111000 MFI
same,MFI,rhNav1.7α + β1-β2-β3 [3],25200 MFI
same,MFI,huNav1.7α + β1-β2-β3 [4],40200 MFI
"F0103495F09 (VHH, also called F103495F09) VHH: EVQLVESGGGLVQAGSSLSLSCAASGRALSTYAMGWFRQAPGKEREFVARISRSGITTYYTDSVKGRFTISRDRAKDTVYLQMNSLKPEDTAIYLCAADASTNPAGYYLRNRYDYWGQGTLVTVSS",binding result,huNav1.7α,no binding
"F0103500E03 (VHH, Purified monovalent protein) VHH: EVQLVESGGGLVQPGGSLRLSCAASGRTFSRYQMGWFRQAPGKEREFVAYISWSGSTRYVDSVKGRFTISRDNAKNTVYLQMNSLKPEDTAVYHCAAGTAGIISSRPETYDSWGQGTLVTVSS",binding result,Navβ3,no binding
same,binding result,huNav1.7α,no binding
"F0103505D08 (VHH, Purified monovalent protein; also called F0103505D8) VHH: EVQLVESGGGLVQAGGSLRLSCVTSGRTSDLSTMNWFRQAPGKEREFVARITRRGSTYYAESVKERFIISRDNAKNTVYLQMNSLKPEDTANYYCTAASEMGYHYRGQGTLVTVSS",binding result,Navβ3,no binding
same,binding result,huNav1.7α,no binding
"F0103265A11 (VHH, entry includes the FLAG-HIS6 tag; also called F0103265A11 (parental)-FLAG-HIS6) VHH: EVQLVESGGGLVQPGGSLRLSCAASGMLFNANTQGWYRQAPGKQRELVAFIFSGGYTNYVDSVKGRFTISRDNAKRTMYLQMNSLKPEDSAIYYCSLSRYLGQGTLVTVSS",binding result,huNav157chim4 + β1-β2-β3,no binding (tested: 1 µM)
same,binding result,huNav157chim5 + β1-β2-β3,no binding (tested: 1 µM)
same,binding result,huNav157chim6 + β1-β2-β3,no binding (tested: 1 µM)
same,binding result,huNav157chim7 + β1-β2-β3,no binding (tested: 1 µM)
same,binding result,[5],no binding (tested: 1 µM)
same,IC50,huNav1.7α + β1-β2-β3 [6],75 nM
"F0103478E09 (VHH, Purified monovalent protein) VHH: EVQLVESGGGLVQAGGSLRLSCAASGRAFSTLAMGWFRQAPGKEREFVAAISRNGNNSATGDSLKGRFTISRDSTKSTVFLQMNTLKPEDTAVYYCAAISTPSASHPYVRKESYRYWGQGTLVTVSS",binding result,Navβ3,no binding
same,binding result,huNav1.7α,no binding
"F0103PMP478E09 (bispecific antibody, Screened as crude periplasmic extract; also called F103275B05(N93R)-50GS-F0103478E09 bivalent ISVD) EVQLVESGGGLVQPGGSLRLSCAASGSIFNINSMAWYRRAPGKQRELVASSTNGGSTNYADSVKGRFTISRDNAKRVYLQMNSLTPEDTAVYYCRALLQPSIYDISRTYWGQGTLVTVSSGGGGSGGGGSGGGGSGGGGSGGGGSGGGGSGGGGSGGGGSGGGGSGGGGSEVQLVESGGGLVQAGGSLRLSCAASGRAFSTLAMGWFRQAPGKEREFVAAISRNGNNSATGDSLKGRFTISRDSTKSTVFLQMNTLKPEDTAVYYCAAISTPSASHPYVRKESYRYWGQGTQVTVSSAAADYKDHDGDYKDHDIDYKDDDDKGAAHHHHHHKAAGGGGG",MFI,huNav157chim14,799 MFI
same,MFI,huNav157chim14-β1-β2-β3,1230 MFI
same,MFI,huNav1.7α + β1-β2-β3 [1],137000 MFI
same,MFI,rhNav1.7α + β1-β2-β3 [2],139000 MFI
same,MFI,rhNav1.7α + β1-β2-β3 [3],60600 MFI
same,MFI,huNav1.7α + β1-β2-β3 [4],82800 MFI
